# According to publication PMC10491434, “SPOP targets the immune transcription factor IRF1 for proteasomal degradation” (eLife, 2023):
# T1: wild-type interferon regulatory factor 1 (wtIRF1) (human, UniProt P10914 1-325)
# T1 sequence (looked up): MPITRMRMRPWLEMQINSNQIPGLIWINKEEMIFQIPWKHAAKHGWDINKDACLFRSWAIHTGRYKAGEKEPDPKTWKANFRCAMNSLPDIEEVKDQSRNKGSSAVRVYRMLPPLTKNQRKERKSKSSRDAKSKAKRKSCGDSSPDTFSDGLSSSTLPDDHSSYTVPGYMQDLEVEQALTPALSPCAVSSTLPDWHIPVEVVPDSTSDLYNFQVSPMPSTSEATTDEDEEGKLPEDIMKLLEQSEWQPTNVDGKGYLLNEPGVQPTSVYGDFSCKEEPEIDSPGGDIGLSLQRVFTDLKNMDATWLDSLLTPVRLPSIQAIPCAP
# Biological target: T1, wild-type interferon regulatory factor …
# Experiment: cell-based or functional assay
binder,measurement,value
"Ollas-tagged wild-type speckle type BTB/POZ protein (wtSPOP) (natural protein, UniProt O43791 1-374, looked up) MSRVPSPPPPAEMSSGPVAESWCYTQIKVVKFSYMWTINNFSFCREEMGEVIKSSTFSSGANDKLKWCLRVNPKGLDEESKDYLSLYLLLVSCPKSEVRAKFKFSILNAKGEETKAMESQRAYRFVQGKDWGFKKFIRRDFLLDEANGLLPDDKLTLFCEVSVVQDSVNISGQNTMNMVKVPECRLADELGGLWENSRFTDCCLCVAGQEFQAHKAILAARSPVFSAMFEHEMEESKKNRVEINDVEPEVFKEMMCFIYTGKAPNLDKMADDLLAAADKYALERLKVMCEDALCSNLSVENAAEILILADLHSADQLKTQAVDFINYHASDVLETSGWKSMVVSHPHLVAEAYRSLASAQCPFLGPPRKRLKQS",fold decrease in IRF1-driven ISRE luciferase reporter activity in HEK-293T cells with SPOP co-expression (dual luciferase assay),11 fold
